Experimental data: patent US9056892B2, “Retrograde transport peptide and use of same for delivery to central nervous system” (UNIVERSITY OF WASHINGTON, priority 2011, dated 2015)
No end group written: not given here. *: point of attachment. Biotin = O=C1N[C@H]2[C@H](CS[C@H]2CCCCC(=O)*)N1

Columns and labels:
[1] = Delivery to the CNS after intraperitoneal injection; format: in vivo
From the text: The methods described above in Example 1 were modified to explore alternative modes of delivery to intramuscular injection.

[2] = test system: neurons in the human spinal cord; assay: Labeling of fresh frozen human spinal cord sections by biotinylated 2404 complexed with quantum dot streptavidin; format: binding; conditions: overall conclusion
Method: FIGS. 6A-6D. Photomicrographs showing TAxI-Streptavidin labels neurons in the adult human spinal cord. Steptavidin conjugated quantum dots (Qdots) were complexed with biotinylated TAxI peptide and incubated on human spinal cord tissue with anti-NeuN and anti-ChAT antibodies. FIG. 6A. Confocal micrographs of ventral root motor neurons stained immunofluorescently for NueN (prominent cytoplasmic stain) and ChAT (lighter cytoplasmic staining) and TAxI-Qdots (primarily visible in the nuclear region). FIG. 6B. High magnification images of the ventral horn stained by immunofluorescence. FIG. 6C. High magnification images of the dorsal grey matter stained by immunofluorescence. FIG. 6D. Spinal cord tissue pre-blocked with 10-fold excess of TAxI-peptide prior to immunofluorescence for NeuN and ChAT and TAxI-QDots.
The ability to target motor neurons that transport peptide-protein complexes and biologically active proteins into the spinal cord provides tremendous potential for utilizing and delivering novel therapeutics for the CNS. This Example examined whether the 2404-peptide could bind to neural elements within the fresh frozen sections of the human spinal cord. […] 2404-steptavidin labeled cells were not prominent in dorsal aspects of the spinal cord.

[3] = test system: spinal cord motor neurons; assay: Cre recombinase delivery into spinal cord after IM injection in Ai14 reporter mice (tdTomato expression); format: in vivo; conditions: 2.5 μg into gastrocnemius, one week post-injection
Method: To have utility as a therapeutic protein delivery system, the TAxI peptide must traffic cargo without rapid degradation or sequestration. To test for TAxI-mediated delivery of active enzyme to the spinal cord, we generated a series of Cre recombinase chimeras: wild-type Cre (Cre), Cre fused to the TAxI peptide (TAxI-Cre), and Cre fused to a mutated TAxI moiety (TAxI^Q-Cre). After purification, each recombinant Cre protein was injected (2.5 μg) into the gastrocnemius of the Ai14 reporter mice. In these mice, delivery of biologically active Cre recombinase results in td-Tomato expression due the excision of a floxed stop-codon.[27] One week post-injection, confocal microscopy was used to image spinal cords isolated after perfusion fixation. […] Furthermore, td-Tomato^+-cells projected into intermediate lamina of the spinal cord as well as into interneuron polls within multiple longitudinal segments, similar to efferent motor neurons (inset).
The coding sequence for Cre recombinase was obtained from the University of Washington Yeast Resource Center. The TAxI peptide sequence was added to the 5-prime end and both TAxI-Cre and wild-type Cre were subcloned into pRSETb (Invitrogen). To allow for expression and purifaction, each plasmid was transformed into BL21(D3)pLysS and grown in media supplemented with IPTG/X-gal (Promega). […]

Molecule	delivery to the CNS [1]	binding and labeling of neurons in the human spinal cord [2]	tdTomato colocalization with NeuN and ChAT [3]	tdTomato expression in the lumbar spinal cord ([3]; confocal microscopy)
ASGAQAR (GGCASGAQARCGG; disulfide (positions not given here); not fully specified (N-terminus, bridges); also: cyclic, mode not given here) [Clone 2404Q]	robust delivery to the CNS			
QSQSQMR (Biotin-SACQSQSQMRCGGG; disulfide (positions not given here); not fully specified (bridges); also: cyclized, mode not given here) [Clone 2404]	robust delivery to the CNS	able to bind and label neurons in the human spinal cord specifically		
TSTAPHLRLRLTSR [Clone 4042]	robust delivery to the CNS			
Cre: wild-type Cre recombinase, recombinant 6×-his-tagged (protein, UniProt P06956 1-343, looked up, 6xHis tag, wild-type Cre recombinase, recombinant 6×-his-tagged) Recombinase cre: MSNLLTVHQNLPALPVDATSDEVRKNLMDMFRDRQAFSEHTWKMLLSVCRSWAAWCKLNNRKWFPAEPEDVRDYLLYLQARGLAVKTIQQHLGQLNMLHRRSGLPRPSDSNAVSLVMRRIRKENVDAGERAKQALAFERTDFDQVRSLMENSDRCQDIRNLAFLGIAYNTLLRIAEIARIRVKDISRTDGGRMLIHIGRTKTLVSTAGVEKALSLGVTKLVERWISVSGVADDPNNYLFCRVRKNGVAAPSATSQLSTRALEGIFEATHRLIYGAKDDSGQRYLAWSGHSARVGAARDMARAGVSIPEIMQAGGWTNVNIVMNYIRNLDSETGAMVRLLEDGD			did not induce tdTomato expression in either NeuN or ChAT-positive cells	small punctuate tdTomato^+-cells
